# T1: Gα13 R279A (human, UniProt Q14344 1-377, R279A)
# T1 sequence (looked up): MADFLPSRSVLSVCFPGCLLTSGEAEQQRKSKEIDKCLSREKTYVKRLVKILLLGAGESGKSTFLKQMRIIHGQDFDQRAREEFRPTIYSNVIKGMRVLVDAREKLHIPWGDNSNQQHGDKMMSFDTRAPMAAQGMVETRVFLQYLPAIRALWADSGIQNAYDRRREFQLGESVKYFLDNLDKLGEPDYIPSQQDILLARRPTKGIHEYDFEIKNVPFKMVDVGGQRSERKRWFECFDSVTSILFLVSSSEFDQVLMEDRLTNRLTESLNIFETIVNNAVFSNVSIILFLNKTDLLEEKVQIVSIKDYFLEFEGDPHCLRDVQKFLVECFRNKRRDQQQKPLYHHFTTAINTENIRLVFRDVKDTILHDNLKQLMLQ
# T2: Gα13 K94E/R97E (human, UniProt Q14344 1-377, K94E | R97E)
# T2 sequence (looked up): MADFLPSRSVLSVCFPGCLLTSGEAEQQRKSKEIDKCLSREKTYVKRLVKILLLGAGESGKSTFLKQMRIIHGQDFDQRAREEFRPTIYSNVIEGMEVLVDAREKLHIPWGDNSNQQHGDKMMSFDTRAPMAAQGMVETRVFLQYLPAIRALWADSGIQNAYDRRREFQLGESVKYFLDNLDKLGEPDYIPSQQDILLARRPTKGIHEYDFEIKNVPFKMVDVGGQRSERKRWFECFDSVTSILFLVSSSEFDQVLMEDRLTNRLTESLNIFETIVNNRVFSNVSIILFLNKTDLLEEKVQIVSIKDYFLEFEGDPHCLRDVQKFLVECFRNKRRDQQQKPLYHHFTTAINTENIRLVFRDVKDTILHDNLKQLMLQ
# T3: Gα13 P202A (human, UniProt Q14344 1-377, P202A)
# T3 sequence (looked up): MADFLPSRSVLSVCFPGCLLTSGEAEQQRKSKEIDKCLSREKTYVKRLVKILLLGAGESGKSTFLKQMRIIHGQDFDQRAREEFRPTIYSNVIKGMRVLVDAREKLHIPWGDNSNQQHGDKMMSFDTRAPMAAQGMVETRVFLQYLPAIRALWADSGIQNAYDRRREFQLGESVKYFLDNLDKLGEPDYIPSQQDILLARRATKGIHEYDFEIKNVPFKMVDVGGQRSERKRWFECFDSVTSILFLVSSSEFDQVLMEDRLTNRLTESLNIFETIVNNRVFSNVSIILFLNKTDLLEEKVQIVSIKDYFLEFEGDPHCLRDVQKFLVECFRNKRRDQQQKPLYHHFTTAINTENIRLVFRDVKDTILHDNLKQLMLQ
# T4: Gα12 (human, UniProt Q03113 1-381)
# T4 sequence: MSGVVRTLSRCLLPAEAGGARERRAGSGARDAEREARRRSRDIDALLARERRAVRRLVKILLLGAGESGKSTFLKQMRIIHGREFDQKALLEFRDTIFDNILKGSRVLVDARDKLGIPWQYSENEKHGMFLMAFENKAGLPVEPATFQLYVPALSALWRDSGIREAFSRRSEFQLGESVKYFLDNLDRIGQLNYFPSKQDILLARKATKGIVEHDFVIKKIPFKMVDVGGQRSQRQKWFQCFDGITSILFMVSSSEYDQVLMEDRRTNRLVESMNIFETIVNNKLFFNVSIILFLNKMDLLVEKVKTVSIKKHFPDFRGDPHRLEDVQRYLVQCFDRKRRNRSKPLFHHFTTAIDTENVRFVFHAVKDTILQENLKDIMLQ
# T5: Gα13 (human, UniProt Q14344 1-377)
# T5 sequence: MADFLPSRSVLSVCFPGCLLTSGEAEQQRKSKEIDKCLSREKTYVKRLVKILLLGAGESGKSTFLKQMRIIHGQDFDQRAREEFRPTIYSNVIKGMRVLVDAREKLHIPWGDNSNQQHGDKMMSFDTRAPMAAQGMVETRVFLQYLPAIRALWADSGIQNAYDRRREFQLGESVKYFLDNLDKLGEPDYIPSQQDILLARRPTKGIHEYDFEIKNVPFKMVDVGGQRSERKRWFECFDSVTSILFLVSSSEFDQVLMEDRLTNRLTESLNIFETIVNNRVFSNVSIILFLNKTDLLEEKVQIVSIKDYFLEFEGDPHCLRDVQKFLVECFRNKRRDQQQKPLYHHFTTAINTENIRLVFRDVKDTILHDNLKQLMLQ
# How the values were obtained:
# Assay in all cases: FRET or BRET
# [1] = molecular target: Gα13 with mutations in three helical domain residues
# Gα13 R201V (human) = Gα13 R201V (human) (UniProt Q14344)
# Gα13 R279A = molecular target: T1, Gα13 R279A
# Gα13 K94E/R97E = molecular target: T2, Gα13 K94E/R97E
# Gα13 P202A = molecular target: T3, Gα13 P202A
# Gα12 = molecular target: T4, Gα12
# Gα13 = molecular target: T5, Gα13
Binder,percent reduction of recruitment against WT Gα13 [1],percent reduction of recruitment against WT Gα13 (Gα13 R201V (human)),percent reduction of recruitment against WT Gα13 (Gα13 R279A),percent reduction of recruitment against WT Gα13 (Gα13 K94E/R97E),percent reduction of recruitment against WT Gα13 (Gα13 P202A),percent reduction of recruitment against WT p115RhoGEF sensor (Gα12),percent reduction of recruitment against WT p115RhoGEF sensor (Gα13)
"p115 RhoGEF (21-244)-RlucII (domain or fragment, UniProt Q92888 21-244, looked up) VSIIGAEDEDFENELETNSEEQNSQFQSLEQVKRRPAHLMALLQHVALQFEPGPLLCCLHADMLGSLGPKEAKKAFLDFYHSFLEKTAVLRVPVPPNVAFELDRTRADLISEDVQRRFVQEVVQSQQVAVGRQLEDFRSKRLMGMTPWEQELAQLEAWVGRDRASYEARERHVAERLLMHLEEMQHTISTDEEKSAAVVNAIGLYMRHLGVRTKSGDKKSGRNF",27 to 81%,26%,50%,81%,37%,,
p115 RhoGEF (21-244)-RlucII E27A (domain or fragment) VSIIGAADEDFENELETNSEEQNSQFQSLEQVKRRPAHLMALLQHVALQFEPGPLLCCLHADMLGSLGPKEAKKAFLDFYHSFLEKTAVLRVPVPPNVAFELDRTRADLISEDVQRRFVQEVVQSQQVAVGRQLEDFRSKRLMGMTPWEQELAQLEAWVGRDRASYEARERHVAERLLMHLEEMQHTISTDEEKSAAVVNAIGLYMRHLGVRTKSGDKKSGRNF,,,,,,~50%,~50%
p115 RhoGEF (21-244)-RlucII I23A (domain or fragment) VSAIGAEDEDFENELETNSEEQNSQFQSLEQVKRRPAHLMALLQHVALQFEPGPLLCCLHADMLGSLGPKEAKKAFLDFYHSFLEKTAVLRVPVPPNVAFELDRTRADLISEDVQRRFVQEVVQSQQVAVGRQLEDFRSKRLMGMTPWEQELAQLEAWVGRDRASYEARERHVAERLLMHLEEMQHTISTDEEKSAAVVNAIGLYMRHLGVRTKSGDKKSGRNF,,,,,,~50%,~50%
p115 RhoGEF (21-244)-RlucII I23F (domain or fragment) VSFIGAEDEDFENELETNSEEQNSQFQSLEQVKRRPAHLMALLQHVALQFEPGPLLCCLHADMLGSLGPKEAKKAFLDFYHSFLEKTAVLRVPVPPNVAFELDRTRADLISEDVQRRFVQEVVQSQQVAVGRQLEDFRSKRLMGMTPWEQELAQLEAWVGRDRASYEARERHVAERLLMHLEEMQHTISTDEEKSAAVVNAIGLYMRHLGVRTKSGDKKSGRNF,,,,,,~50%,~50%
"PDZ RhoGEF-RlucII sensor (domain or fragment, UniProt O15085 281-483, looked up) QGVDQSPKPLIIGPEEDYDPGYFNNESDIIFQDLEKLKSRPAHLGVFLRYIFSQADPSPLLFYLCAEVYQQASPKDSRSLGKDIWNIFLEKNAPLRVKIPEMLQAEIDSRLRNSEDARGVLCEAQEAAMPEIQEQIHDYRTKRTLGLGSLYGENDLLDLDGDPLRERQVAEKQLAALGDILSKYEEDRSAPMDFALNTYMSHA",,,50%,71%,,,

# From article doi:10.1101/2024.12.28.630591 (bioRxiv, 2024)
